The values below come from the Immune Epitope Database (IEDB).

Bounds are passed on as bounds.

One test addresses HLA-A*23:01. Description: IEDB peptide-MHC binding, purified MHC/competitive/radioactivity; filed as Kd, often an IC50 or EC50 that approximates it; ≥ and ≤ were set here for values at or beyond the usual limits of such assays.
The next test addresses HLA-A*24:02. The description is as above.
A further test has as its target HLA-A*29:02. The test is described as above.
For the next test, the target named is HLA-A*03:01. Described as above. The settings on record: source organism: Dengue virus 1 Brazil/97-11/1997.
Another test addresses HLA-A*30:01. The test is described as above.
Another test deals with HLA-A*30:02. The test is described as above.
In test [1] the target is HLA-A*02:01. Briefly: IEDB peptide-MHC binding, purified MHC/competitive/fluorescence; filed as Kd, often an IC50 or EC50 that approximates it; ≥ and ≤ were set here for values at or beyond the usual limits of such assays.
Test [2] concerns the target HLA-A*02:01. Description: IEDB peptide-MHC binding, purified MHC/competitive/fluorescence; ≥ and ≤ were set here for values at or beyond the usual limits of such assays.
For a further test, the target named is HLA-A*01:01. Briefly: IEDB peptide-MHC binding, purified MHC/competitive/radioactivity; filed as Kd, often an IC50 or EC50 that approximates it; ≥ and ≤ were set here for values at or beyond the usual limits of such assays.
Another test has as its target HLA-A*26:01. Described as above.
Another test addresses HLA-A*69:01. Description: IEDB peptide-MHC binding, purified MHC/direct/fluorescence; filed as Kd, often an IC50 or EC50 that approximates it; ≥ and ≤ were set here for values at or beyond the usual limits of such assays. The note with it: source organism: Mus musculus.
Another test has as its target HLA-B*07:02. The description is as above. The settings on record: source organism: Mus musculus.
Another test has as its target HLA-B*40:01. Described as above.
Setting [3] is: source organism: Mammarenavirus guanaritoense.
The mark [4] stands for this setting: source organism: Dengue virus 1 Brazil/97-11/1997.
Where [5] appears, read: source organism: Dengue virus 2 Jamaica/1409/1983.
Setting [6] is: source organism: Vaccinia virus WR.
The mark [7] stands for this setting: source organism: Zaire ebolavirus.
[8] abbreviates: source organism: Vaccinia virus Copenhagen.
The mark [9] stands for this setting: source organism: Dengue virus 3 Martinique/1243/1999.
Where [10] appears, read: source organism: Mammarenavirus brazilense.
The mark [11] stands for this setting: source organism: Mammarenavirus juninense.
Setting [12] is: source organism: Dengue virus 4 Philippines/H241/1956.
The mark [13] stands for this setting: source organism: Dengue virus 2 Peru/IQT2913/1996.

Usually Kd stands for a measure of binding affinity in units of concentration. The IC50 is the concentration needed to halve the response being measured. Higher therefore signals a need for much substance.

For the sequence AIFFTTSLF, the values for the Kd in the test with HLA-A*23:01 (setting [3]), with HLA-A*24:02 (setting [3]) and with HLA-A*29:02 (setting [3]) were 0.246 µM, 1.21 µM and 0.274 µM, respectively.
As to AIKVLRGFK, the Kd in the test with HLA-A*03:01 stood at 0.119 µM; with HLA-A*30:01 (setting [4]) it was 0.501 µM.
With AKQPATLRKY, the Kd in the test with HLA-A*30:02 (setting [5]) amounted to 5.24 µM.
Sequence ALSALLTKL came in with a Kd with HLA-A*02:01 [1] (source organism: Human alphaherpesvirus 1 strain 17) of 0.313 µM.
With ASKSLKPTK, the Kd with HLA-A*30:01 (setting [6]) turned out to be 0.0151 µM.
For the sequence ASLFLPKLV, the IC50 in the test with HLA-A*02:01 [2] (setting [7]) was 11.9 µM.
The same measure, in the same setting: under ASTVIYRGT stands ≥ 222 µM.
In turn, CLTEYILWV came in with a dissociation constant (Kd) with HLA-A*02:01 [1] (setting [8]) of 0.0107 µM.
Turning to DLCGSVFLV, the IC50 in the test with HLA-A*02:01 [2] (source organism: Hepatitis C virus genotype 1) is 5 µM.
Take DWVPTSRTTW: the Kd was found to be 6.77 µM with HLA-A*23:01 (setting [4]) and 0.886 µM in the test with HLA-A*24:02 (setting [4]).
In the case of EEALKGLPIR, the Kd in the test with HLA-A*30:01 (setting [9]) was 0.609 µM.
For the sequence EFFECFKYLL, the Kd with HLA-A*23:01 (setting [10]) was 0.624 µM; with HLA-A*24:02 (setting [10]), 1.2 µM; with HLA-A*29:02 (setting [10]), 0.0327 µM.
For the sequence ESEIPNLDII, the Kd in the test with HLA-A*01:01 (setting [5]) came to 7.19 µM.
ETLEQMQRKH: the Kd with HLA-A*26:01 (setting [4]) was 14 µM.
Still for that read-out and setting: under ETTKKDLGI stands ≥ 54.7 µM.
Regarding FLADKKMTL, the Kd with HLA-A*02:01 [1] (setting [6]) is 0.0015 µM.
As for FMSNGEHVP, the IC50 in the test with HLA-A*02:01 [2] (setting [6]) amounted to 57.6 µM.
As to FPEHIFPAL, the Kd is 2.33 µM with HLA-A*69:01, 0.937 µM with HLA-B*07:02 and 0.278 µM with HLA-B*40:01 (source organism: Mus musculus).
For FYQKTGEKS, the Kd is ≥ 78.1 µM with HLA-A*01:01 (setting [11]), ≥ 58.7 µM with HLA-A*24:02 (setting [11]), ≥ 77.9 µM in the test with HLA-A*26:01 (setting [11]) and ≥ 40.8 µM with HLA-A*30:02 (setting [11]).
As to GEGGVGSIL, the Kd with HLA-B*40:01 (source organism: Mycobacterium tuberculosis) worked out at 0.033 µM.
The sequence GLYKSINVE gave an IC50 with HLA-A*02:01 [2] (setting [6]) of 39.5 µM.
For GMSRIGMEV, in the test with HLA-A*02:01 [1] (source organism: SARS-CoV1), the equilibrium dissociation constant (Kd) was 0.0016 µM.
As for GVVTKSGDY, the Kd was determined as 2.42 µM with HLA-A*26:01 (setting [12]) and 0.98 µM with HLA-A*30:02 (setting [12]).
For the sequence GVVTRSGAY, the Kd in the test with HLA-A*26:01 (setting [5]) is 0.836 µM; in the test with HLA-A*30:02 (setting [5]) it was 0.00928 µM.
Consider HAKSQCRPS, for which the Kd in the test with HLA-A*30:01 (setting [8]) is 0.854 µM.
Regarding HVFFSEYIV, the Kd with HLA-A*30:01 (setting [6]) stood at 0.883 µM.
On to HVTRGAVLMY, for which, in the test with HLA-A*26:01 (setting [4]), the dissociation constant (Kd) turned out to be 0.233 µM.
For IITASILLWY, the Kd with HLA-A*01:01 (setting [5]) was found to be 0.0932 µM.
IMAILCVPNA: in the test with HLA-A*30:01 (setting [5]), the Kd worked out at 0.045 µM.
For the sequence ITDFAGKTV, in the test with HLA-A*01:01 (setting [9]), the Kd is ≥ 20.3 µM.
As for IVQPENLEY, the dissociation constant Kd with HLA-A*01:01 (setting [13]) was 0.512 µM; with HLA-A*30:02 (setting [13]), 0.11 µM.
With IVQYENLKY, the values for the Kd with HLA-A*01:01 (setting [4]) and with HLA-A*30:02 (setting [4]) were 5.95 µM and 0.191 µM, respectively.
On to KHKIFSPFK, for which the Kd with HLA-A*30:01 (setting [6]) worked out at 0.000886 µM.
KIGDFGLATV: in the test with HLA-A*02:01 [2] (source organism: Homo sapiens), the IC50 is 0.04 µM.
Turning to KRLEELLPA, the IC50 with HLA-A*02:01 [2] (setting [7]) was ≥ 683 µM.
In the case of KSHAIYWDK, the Kd in the test with HLA-A*30:01 (setting [6]) is 0.0105 µM.
Still for that read-out and setting: for KSKSRRLNL the value was 0.0126 µM; for KTSHAKVLV, 0.0709 µM.
Same read-out and setting: for KVKKKYAIG the value was 0.00155 µM.
For LAGVSLLPVC, the Kd in the test with HLA-A*30:01 (setting [9]) worked out at 15.9 µM.
Regarding LFSGVSWVM, the dissociation constant (Kd) with HLA-A*24:02 (setting [9]) stood at 0.105 µM.
Consider LNASQYANC, for which the 50% inhibitory concentration (IC50) in the test with HLA-A*02:01 [2] (setting [8]) is ≥ 1400 µM.
On the same count and under the same terms, under LNGAMVEYV stands 29.1 µM.
As for LSEKEENMV, the Kd with HLA-A*01:01 (setting [12]) was 6.47 µM.
Turning to LSLLQLPRD, the IC50 with HLA-A*02:01 [2] (source organism: Sudan ebolavirus) was ≥ 173 µM.
Take LTRYALHGK: the Kd with HLA-A*30:01 (setting [6]) worked out at 0.000252 µM.
